Test results as given in PMC8126837 (2021).
Like-named read-outs stand apart in the source and are kept apart here.

Key:
[1] = target: T1, SARS-CoV-2 receptor-binding domain (RBD), wild type (SARS-CoV-2, UniProt P0DTC2 331-527); test: BLI
[2] = target: T1, SARS-CoV-2 receptor-binding domain …; test: BLI; remark: listed apart in the source
[3] = target: SARS-CoV S1 subunit (SARS-CoV, UniProt P59594 14-667)
[4] = target: SARS2 S1
[5] = target: T2, SARS-CoV-2 spike (recombinant, used in bio-layer interferometry) (SARS-CoV-2, UniProt P0DTC2); test: BLI
[6] = target: T1, SARS-CoV-2 receptor-binding domain …; test: BLI; remark: listed apart in the source
[7] = target: T2, SARS-CoV-2 spike (recombinant, used in …); test: BLI; remark: listed apart in the source
[8] = target: T1, SARS-CoV-2 receptor-binding domain …; test: BLI; remark: listed apart in the source

Binder | koff [1] [s⁻¹] | Kd [2] [nM] | EC50 [3] [nM] | EC50 [4] [nM] | IC50 [4] [nM] | koff [5] [s⁻¹] | koff [6] [s⁻¹] | Kd [7] [nM] | Kd [8] [nM]
WNb 23 (VHH) VHH: QVQLQESGGGLVQPGGSLRLSCAASGFTFKDYAMAWARQVPGKGLEWVSGIYSDGNTYYADSVKGRFTISRDNAKNTVYLRMNSLKPEDTAVYYCATERHPQGAADFGSWGQGTQVTVSS | 0.00245 | 9.03 | – | – | – | – | – | – | –
WNb 7 (VHH) VHH: QVQLQESGGGLVQPGGSLRLSCAAPGFTFSSYAMGWFRQVPGKGLEWVSGIYSDGSTYYADSVKGRFTISRDNAKNTVYLQMNSLKPEDTAVYYCAKDRLEGSSWPERDFGSWGQGTQVTVSS | 3.19e-05 | 0.26 | – | – | – | – | – | – | –
WNb 10 (VHH) VHH: QVQLQESGGGLVQPGGSLRLSCAASGFTFRRYLMGWARQVPGKGLEWVSGIYSDGSTYYADSVKGRFTISRDNAKNTVYLQMNSLKPEDTAVYYCAKDRMDGSTWPERDFGSWGQGTQVTVSS | 9.64e-05 | 0.68 | – | – | – | – | – | – | –
WNb 50 (VHH) VHH: QVQLQESGGGLVQPGGSLRLSCAASGFTFSSYAMGWFRQVPGKGLEWVSGIYSDGSTYYADSVKGRFTISRDNAKNTVYLQMNSLKPEDTAVYYCAADRMAGSRWPERDFGSWGQGTQVTVSS | 0.00013 | 0.63 | – | – | – | – | – | – | –
WNbFc 7 (Fc fusion) QVQLQESGGGLVQPGGSLRLSCAAPGFTFSSYAMGWFRQVPGKGLEWVSGIYSDGSTYYADSVKGRFTISRDNAKNTVYLQMNSLKPEDTAVYYCAKDRLEGSSWPERDFGSWGQGTQVTVSS | – | 0.35 | 1.12 | 0.46 | 0.45 | < 1e-06 | 0.000191 | < 0.01 | 0.7
WNb 53 (VHH) VHH: QVQLQESGGGLVQPGGSLRLSCAASGFTFSSYLMGWARQVPGKGLEWVAGIYSDGSTYYADSVKGRFIISRDNAKNTVYLQMNSLKPEDTAVYYCAKDRMEDSTWPERDFGSWGQGTQVTVSS | 0.00013 | 0.64 | – | – | – | – | – | – | –
WNb 15 (VHH) VHH: QVQLQESGGGLVQPGGSLRLSCAASGFTFSSYLMGWFRQVPGKGLEWVSGIYSDGGTYYADSVKGRFTISRDNAKNTVYLQMNSLKPEDTAVYYCATDRMEGSSWPERDFGSWGQGTQVTVSS | 3.05e-05 | 0.14 | – | – | – | – | – | – | –
WNbFc 15 (Fc fusion) QVQLQESGGGLVQPGGSLRLSCAASGFTFSSYLMGWFRQVPGKGLEWVSGIYSDGGTYYADSVKGRFTISRDNAKNTVYLQMNSLKPEDTAVYYCATDRMEGSSWPERDFGSWGQGTQVTVSS | – | 0.25 | 1.69 | 1.6 | 1.07 | < 1e-06 | 0.000128 | < 0.01 | 0.44
WNb 36 (VHH) VHH: QVQLQESGGGLVQPGGSLRLSCAVSGFTLDYYAIGWFRQAPGKEREGVSCISNSGGNTKYADSVKGRFTTSVDNAQNTVYLLMNSLEPEDTAVYYCAAIAATYYSGTYYYQCPHYGMDYWGKGTQVTVSS | 0.000127 | 0.43 | – | – | – | – | – | – | –
WNbFc 36 (Fc fusion) QVQLQESGGGLVQPGGSLRLSCAVSGFTLDYYAIGWFRQAPGKEREGVSCISNSGGNTKYADSVKGRFTTSVDNAQNTVYLLMNSLEPEDTAVYYCAAIAATYYSGTYYYQCPHYGMDYWGKGTQVTVSS | – | 0.36 | – | 0.63 | 0.32 | < 1e-06 | 0.000202 | < 0.01 | 0.61
WNb 19 (VHH) VHH: QVQLQESGGGLVQPGGSLRLSCAASGSMFSINVMGWYRQASGKQRELVAGITRDGATNYSDSVKGRFTISGDNAKNTVYLQMNSLKPEDTAVYYCNTNVDSVWGSRIDYFGQGTQVTVSS | 0.000107 | 0.46 | – | – | – | – | – | – | –
WNb 41 (VHH) VHH: QVQLQESGGGLVQPGGSLRLSCAVSGFTLDYYAIGWFRQAPGKEREGVSCISSSGGSTNYADSVKGRFTISRDNAKNTVYLQMNGLKPEDTAVYYCAAIAATYYSGSYYYQCPHDGMDYWGKGTQVTVSS | 0.000104 | 0.55 | – | – | – | – | – | – | –
WNb 2 (VHH) VHH: QVQLQESGGGLVQPGGSLRLSCAVSGFTLDYYAIGWFRQAPGKEREGVSCISSSGGNTKYADSVKGRFTASRDNAKNTFYLQMNSLKPEDTAVYYCAAIAATYYSGSYYFQCPHDGMDYWGKGTQVTVSS | 7.34e-05 | 0.36 | – | – | – | – | – | – | –
WNb 67 (VHH) VHH: QVQLQESGGGLVQPGGSLRLSCAVSGFTLDYYAIGWFRQAPGKEREGVSCISSSGGSTNYADSVKGRFTISRDNATNTVYLQMNSLKPEDTAVYYCAAIAATYYGGSYYYQCPHYGMDYWGKGTQVTVSS | 0.000212 | 0.61 | – | – | – | – | – | – | –
WNbFc 2 (Fc fusion) QVQLQESGGGLVQPGGSLRLSCAVSGFTLDYYAIGWFRQAPGKEREGVSCISSSGGNTKYADSVKGRFTASRDNAKNTFYLQMNSLKPEDTAVYYCAAIAATYYSGSYYFQCPHDGMDYWGKGTQVTVSS | – | – | – | 1.17 | 0.66 | < 1e-06 | 0.000158 | < 0.01 | 0.59
